Test in all cases: two-hybrid
The target in one test is T1, Rev1 (S. cerevisiae, UniProt P12689 1-985).
T1 sequence (looked up): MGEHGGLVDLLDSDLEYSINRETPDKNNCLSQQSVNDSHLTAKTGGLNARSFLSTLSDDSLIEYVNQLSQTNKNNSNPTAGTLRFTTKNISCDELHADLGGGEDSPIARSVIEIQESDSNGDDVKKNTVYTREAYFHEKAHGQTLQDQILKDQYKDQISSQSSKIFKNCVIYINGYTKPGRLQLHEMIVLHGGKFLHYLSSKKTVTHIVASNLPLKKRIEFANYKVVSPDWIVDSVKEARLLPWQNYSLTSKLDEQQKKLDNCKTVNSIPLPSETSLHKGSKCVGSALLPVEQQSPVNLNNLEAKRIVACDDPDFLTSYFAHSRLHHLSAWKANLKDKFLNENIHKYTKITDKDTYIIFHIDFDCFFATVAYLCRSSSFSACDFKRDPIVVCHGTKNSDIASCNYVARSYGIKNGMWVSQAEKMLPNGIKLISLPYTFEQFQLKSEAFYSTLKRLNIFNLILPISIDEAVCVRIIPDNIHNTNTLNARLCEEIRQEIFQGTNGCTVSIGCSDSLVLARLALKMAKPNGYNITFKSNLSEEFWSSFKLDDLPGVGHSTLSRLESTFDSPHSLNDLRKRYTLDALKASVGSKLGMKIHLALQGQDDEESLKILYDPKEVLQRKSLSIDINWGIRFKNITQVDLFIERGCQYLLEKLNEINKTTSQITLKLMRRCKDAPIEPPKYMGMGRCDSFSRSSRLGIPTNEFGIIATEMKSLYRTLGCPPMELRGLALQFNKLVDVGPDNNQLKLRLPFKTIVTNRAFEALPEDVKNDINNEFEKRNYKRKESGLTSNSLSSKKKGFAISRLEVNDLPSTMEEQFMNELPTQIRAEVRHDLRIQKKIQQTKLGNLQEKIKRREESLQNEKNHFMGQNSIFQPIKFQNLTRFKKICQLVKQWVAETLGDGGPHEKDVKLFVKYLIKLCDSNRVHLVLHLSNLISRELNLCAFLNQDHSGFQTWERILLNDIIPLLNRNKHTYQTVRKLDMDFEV

For test [1], the target named is T2, Rev7 (S. cerevisiae, UniProt P38927 1-245).
T2 sequence (looked up): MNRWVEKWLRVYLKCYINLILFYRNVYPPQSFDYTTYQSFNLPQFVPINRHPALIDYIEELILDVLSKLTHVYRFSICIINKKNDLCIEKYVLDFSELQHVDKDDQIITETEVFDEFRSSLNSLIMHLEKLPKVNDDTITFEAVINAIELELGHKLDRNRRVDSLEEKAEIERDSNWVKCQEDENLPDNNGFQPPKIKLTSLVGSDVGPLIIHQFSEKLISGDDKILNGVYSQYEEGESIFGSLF

Test [2] deals with T2, Rev7. This is another data set of the same source.

Where two headings read alike, the source gives them in different places.

B1: Mei4 (natural protein, S. cerevisiae, UniProt P29467 1-408, looked up)
chain: MSRGKLEDMEQKETSEVDWIICFALIQSRNPTLWKRALSRKKGDVEDVGALKSEKNLKINPRENSKHIYKWVAPFENGFLNNKSLFAHLEPIYNFLCQNKYKSFEDAVGLKELQSFSKDVSTADINNWFLPRYKILLKILSLKTKEIDFRGLSQVFQTLQILLVSHYSHRIDSDSSFKRTLIDVHVFNFIAKFLFNRILLKKNQNDPKWLQNFYDQGDGKHLCDKVDYKRLCSLHFTLIYSIINIQLIKIKTNQTFEPQILKYVSVLKLIEHILIIIESLIHVLIRFVSKHKLICINRKKAYCRVYLERELSLKKTYLKNFYSVISGVPEKELGGLLKILKIVILSLLETFESIEWQHLKPFLEKFPAHEISLQKKRKYIQAALLITAERNLIARFRLSRWFNETENI
Take B1: in the test with Rev1, the “fold change in reporter activity over the highest negative control” value (from here on “fold change in reporter activity”) worked out at 3.01 fold.

B2: Rec114 (natural protein, S. cerevisiae, UniProt P32841 1-428, looked up)
chain: MYEYCSVVIKKYSKYTIPSFAPNGFQSMLEPPQIDKWQHLSANCTLQFRVLLMDSRQILINVVLNNSTLLENIRLPLGDNQDLIQFSCKSPIISCKYISEEFGPRMLRRFQMNLPNDVEFNRTVVSLKNLNFVLRTARTSIAQSTITSQVQGNNNGTKVCFTEGPKVSSYTNPNTQFQTQNMIMDFSQRYQEESERESNNRSNITLPHDSIQIAQQIWPNTDLNVVQSSQDLNTPMATQTVLGRPESLIVQPLEVSQSPPNTTNCLPNAENKKKKVDTTSDFTSRKEIALCKTGLLETIHIPKERESQMQSVTGLDATPTIIWSPGKDNTAKKNTSNKKNIDDKLTNPQKSGNTHTPDRNKEVLPNGTLNETRKEASPSEGLTIRVKNVNRNASRKISKRLIKEKLKDEEFMKWVNKVETVLNKMFEK
For B2, in the test with Rev7 [1], the “fold change in reporter activity” value came to 6.27 fold.

B3: Spo11 (natural protein, S. cerevisiae, UniProt P23179 1-398, looked up)
chain: MALEGLRKKYKTRQELVKALTPKRRSIHLNSNGHSNGTPCSNADVLAHIKHFLSLAANSLEQHQQPISIVFQNKKKKGDTSSPDIHTTLDFPLNGPHLCTHQFKLKRCAILLNLLKVVMEKLPLGKNTTVRDIFYSNVELFQRQANVVQWLDVIRFNFKLSPRKSLNIIPAQKGLVYSPFPIDIYDNILTCENEPKMQKQTIFPGKPCLIPFFQDDAVIKLGTTSMCNIVIVEKEAVFTKLVNNYHKLSTNTMLITGKGFPDFLTRLFLKKLEQYCSKLISDCSIFTDADPYGISIALNYTHSNERNAYICTMANYKGIRITQVLAQNNEVHNKSIQLLSLNQRDYSLAKNLIASLTANSWDIATSPLKNVIIECQREIFFQKKAEMNEIDARIFEYK
In the case of B3, in the test with Rev1, the “fold change in reporter activity” value amounted to 4.15 fold.

B4: Rad54 (natural protein, S. cerevisiae, UniProt P32863 1-898, looked up)
chain: MARRRLPDRPPNGIGAGERPRLVPRPINVQDSVNRLTKPFRVPYKNTHIPPAAGRIATGSDNIVGGRSLRKRSATVCYSGLDINADEAEYNSQDISFSQLTKRRKDALSAQRLAKDPTRLSHIQYTLRRSFTVPIKGYVQRHSLPLTLGMKKKITPEPRPLHDPTDEFAIVLYDPSVDGEMIVHDTSMDNKEEESKKMIKSTQEKDNINKEKNSQEERPTQRIGRHPALMTNGVRNKPLRELLGDSENSAENKKKFASVPVVIDPKLAKILRPHQVEGVRFLYRCVTGLVMKDYLEAEAFNTSSEDPLKSDEKALTESQKTEQNNRGAYGCIMADEMGLGKTLQCIALMWTLLRQGPQGKRLIDKCIIVCPSSLVNNWANELIKWLGPNTLTPLAVDGKKSSMGGGNTTVSQAIHAWAQAQGRNIVKPVLIISYETLRRNVDQLKNCNVGLMLADEGHRLKNGDSLTFTALDSISCPRRVILSGTPIQNDLSEYFALLSFSNPGLLGSRAEFRKNFENPILRGRDADATDKEITKGEAQLQKLSTIVSKFIIRRTNDILAKYLPCKYEHVIFVNLKPLQNELYNKLIKSREVKKVVKGVGGSQPLRAIGILKKLCNHPNLLNFEDEFDDEDDLELPDDYNMPGSKARDVQTKYSAKFSILERFLHKIKTESDDKIVLISNYTQTLDLIEKMCRYKHYSAVRLDGTMSINKRQKLVDRFNDPEGQEFIFLLSSKAGGCGINLIGANRLILMDPDWNPAADQQALARVWRDGQKKDCFIYRFISTGTIEEKIFQRQSMKMSLSSCVVDAKEDVERLFSSDNLRQLFQKNENTICETHETYHCKRCNAQGKQLKRAPAMLYGDATTWNHLNHDALEKTNDHLLKNEHHYNDISFAFQYISH
For B4, the “fold change in reporter activity” value with Rev7 [2] worked out at 1.49 fold.

B5: Rad57 (natural protein, S. cerevisiae, UniProt P25301 1-460, looked up)
chain: MPRALSIKFDNTYMDLYDELPESKLLYDEEFSYLLDAVRQNGVCVVDFLTLTPKELARLIQRSINEVFRFQQLLVHEYNEKYLEICEKNSISPDNGPECFTTADVAMDELLGGGIFTHGITEIFGESSTGKSQLLMQLALSVQLSEPAGGLGGKCVYITTEGDLPTQRLESMLSSRPAYEKLGITQSNIFTVSCNDLINQEHIINVQLPILLERSKGSIKLVIIDSISHHLRVELQNKSFRESQENKNYLDRMAEKLQILAHDYSLSVVVANQVGDKPLANSPVAHRTYVTDYDYQLGWLVGWKNSTILYRQMNSLLGASSNNDEILSDDEDYMLIERVMSTVNDRNYDFFSKKKPPIIENKTVERNSSSPISRQSKKRKFDYRVPNLGLTWSNHVSTRILLQKSFKASTIIQRGEAHLYKGGDSASFWQVKRTMKVVYSTFAKPGQIAYQITKRGIETA
As for B5, the “fold change in reporter activity” value with Rev7 [2] was determined as 2 fold.

These data come from article PMC3618350 (G3: Genes|Genomes|Genetics, 2013).
